Source: publication PMC4538832, “Structures of the T. brucei kRNA editing factor MRB1590 reveal unique RNA-binding pore motif contained within an ABC-ATPase fold”

T1: MRB1590(10-668) (Trypanosoma brucei, UniProt UPI00067E648B 10-668)
T1 sequence: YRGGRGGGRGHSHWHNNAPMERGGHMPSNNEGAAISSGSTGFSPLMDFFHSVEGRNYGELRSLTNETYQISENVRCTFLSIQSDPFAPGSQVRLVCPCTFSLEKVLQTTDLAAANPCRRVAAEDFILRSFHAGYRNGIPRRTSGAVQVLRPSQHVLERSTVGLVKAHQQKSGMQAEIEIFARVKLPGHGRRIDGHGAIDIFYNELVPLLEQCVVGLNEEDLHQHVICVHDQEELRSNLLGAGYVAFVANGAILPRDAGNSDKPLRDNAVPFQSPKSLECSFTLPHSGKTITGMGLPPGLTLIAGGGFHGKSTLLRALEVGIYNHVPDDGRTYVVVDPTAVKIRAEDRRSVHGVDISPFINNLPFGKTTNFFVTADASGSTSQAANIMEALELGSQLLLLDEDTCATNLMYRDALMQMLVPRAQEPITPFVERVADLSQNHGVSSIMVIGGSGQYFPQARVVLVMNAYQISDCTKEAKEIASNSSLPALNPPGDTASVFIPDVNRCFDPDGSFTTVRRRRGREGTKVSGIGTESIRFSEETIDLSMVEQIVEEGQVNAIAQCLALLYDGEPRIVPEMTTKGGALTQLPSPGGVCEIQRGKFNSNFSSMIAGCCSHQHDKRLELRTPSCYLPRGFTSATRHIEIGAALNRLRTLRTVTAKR

B1: dsGC-rich RNA (dsRNA)
RNA 1: AGGCGGGCGGGCGACGGCGGU
RNA 2: ACCGCCGUCGCCCGCCCGCCU

Tests used:
MRB1590(10-668) [1] = target: T1, MRB1590(10-668); test: fluorescence polarization; ADP, Mg2+; FP: 20 mM Tris-HCl pH 7.5, 150 mM NaCl, 5% glycerol, 1 mM MgCl2, 2 mM ADP or AMP-PNP, 1 nM 3'-fluoresceinated RNA (heated to 99 C, slow cooled), 25 C; conditions: protein: recombinant, chain copies: 2
MRB1590 R199A-R200A = MRB1590 R199A-R200A (Trypanosoma brucei, UniProt UPI00067E648B 10-668, R199A;R200A); test: as above; conditions: protein: recombinant; chain copies: 2; label: 3' fluorescein
MRB1590 F95A = MRB1590 F95A (Trypanosoma brucei, UniProt UPI00067E648B 10-668, F95A); test: as above; conditions: protein: recombinant; chain copies: 2; label: 3' fluorescein
MRB1590(10-668) [2] = target: T1, MRB1590(10-668); test: fluorescence polarization; ADP, Mg2+; 1 RNA : 2 subunits; FP: 20 mM Tris-HCl pH 7.5, 150 mM NaCl, 5% glycerol, 1 mM MgCl2, 2 mM ADP or AMP-PNP, 1 nM 3'-fluoresceinated RNA (heated to 99 C, slow cooled), 25 C; conditions: protein: recombinant; chain copies: 2; label: 3' fluorescein
MRB1590 R191A = MRB1590 R191A (Trypanosoma brucei, UniProt UPI00067E648B 10-668, R191A); test: fluorescence polarization; ADP, Mg2+; small effect vs wt; FP: 20 mM Tris-HCl pH 7.5, 150 mM NaCl, 5% glycerol, 1 mM MgCl2, 2 mM ADP or AMP-PNP, 1 nM 3'-fluoresceinated RNA (heated to 99 C, slow cooled), 25 C; conditions: protein: recombinant; chain copies: 2; label: 3' fluorescein
MRB1590 Y637A = MRB1590 Y637A (Trypanosoma brucei, UniProt UPI00067E648B 10-668, Y637A); test: fluorescence polarization; ADP, Mg2+; little effect vs wt; FP: 20 mM Tris-HCl pH 7.5, 150 mM NaCl, 5% glycerol, 1 mM MgCl2, 2 mM ADP or AMP-PNP, 1 nM 3'-fluoresceinated RNA (heated to 99 C, slow cooled), 25 C; conditions: protein: recombinant; chain copies: 2; label: 3' fluorescein
MRB1590(10-668) [3] = target: T1, MRB1590(10-668); test: fluorescence polarization; AMP-PNP (table header says ATP), Mg2+; FP: 20 mM Tris-HCl pH 7.5, 150 mM NaCl, 5% glycerol, 1 mM MgCl2, 2 mM ADP or AMP-PNP, 1 nM 3'-fluoresceinated RNA (heated to 99 C, slow cooled), 25 C; conditions: protein: recombinant; chain copies: 2; label: 3' fluorescein

Binder | Kd (MRB1590(10-668) [1]; label: 3' fluorescein) | further results
AGAGGCGGGCGGGCGACGGCGGU (structured_RNA) [GC-rich hairpin RNA] | – | binding result (MRB1590(10-668) [1]; label: 3' fluorescein, hairpin): no binding
UUUUUUUUUUUUUUU (ssRNA) [U15 RNA] | 182 ± 30 nM | –
AGGCGGGCGGGCGACGGCGGU (ssRNA) [GC-rich sequence RNA (A6 pause site, 21 mer)] | – | binding signal (MRB1590 R199A-R200A): 590 fold reduction vs wt; binding signal (MRB1590 F95A): 10 fold reduction vs wt; Kd (MRB1590(10-668) [2]): 2.2 ± 0.2 nM; binding result (MRB1590 R191A): binds; binding result (MRB1590 Y637A): binds
GAUUUUUUGAGUGGGACUGGAGAGAAAGAGCCGUUCGAGC (ssRNA) [RSP12 #2] | 27 ± 2.8 nM | –
GAGAAGGCGAGGGCGACGGGCAAAAGAUUUU (ssRNA) [NAD7 #2] | 7.8 ± 0.5 nM | –
AAAAAAAAAAAAAAA (ssRNA) [A15 RNA] | 437 ± 80 nM | –
GAACCUGGUAGGUGUAAUGAAAUAAUUUUGU (ssRNA) [COX II #2] | 43 ± 1.6 nM | –
UGAUACAAAAAAACAUGACUACAUGAUAAGUA (ssRNA) [NAD7 #1] | 50 ± 4 nM | –
ACCGCCGUCGCCCGCCCGCCU (ssRNA) [Complement of GC-rich RNA] | 395 ± 95 nM | Kd (MRB1590(10-668) [3]): 377 ± 69 nM
ACAAUAUCAAGUUUAGGUAUAAAGUAGA (ssRNA) [COX II #1] | 44 ± 2 nM | –
CUAAUACACUUUUGAUAACAAACUAAAGUAAAAAGGCGAG (ssRNA) [RSP12 #1] | 63 ± 2.5 nM | –
B1 | – | Kd (MRB1590(10-668) [1]): 50 ± 15 nM
